pKd: −log10 of the molar value. Blank lines part the entries; values can stand above or below the substance they belong to.
How the values were obtained:
[1] = biological target: GST-FCHO1 linker wt (N123C) (residues 316 to 444) (human) (UniProt O14526); test: BLI; GST-FCHO1 or GST-FCHO2 linker loaded on anti-GST biosensors, blocked with GST-ARRS control; AP2 core in solution (twofold dilutions, 13.5 to 0.8 and 10.0 to 0.2 μM); 25°C; 0.1% NP-40, BSA 1 mg/ml; equilibrium analysis; near-physiological conditions
Chain of GST-FCHO1 linker wt (N123C) (residues 316 to 444) (human) (O14526 316-444, stated change not applied): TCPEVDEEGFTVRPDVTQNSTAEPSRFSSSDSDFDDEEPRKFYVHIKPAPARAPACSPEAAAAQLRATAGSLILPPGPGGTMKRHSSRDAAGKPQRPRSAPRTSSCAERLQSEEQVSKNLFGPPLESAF

[2] = biological target: GST-FCHO2 linker wt (residues 314 to 444) (human) (UniProt Q0JRZ9); test: as above
Chain of GST-FCHO2 linker wt (residues 314 to 444) (human) (Q0JRZ9 314-444): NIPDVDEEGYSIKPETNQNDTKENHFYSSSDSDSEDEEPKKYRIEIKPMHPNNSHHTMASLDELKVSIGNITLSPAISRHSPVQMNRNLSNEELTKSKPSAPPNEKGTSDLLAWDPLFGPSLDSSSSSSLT

[3] = biological target: GST-TGN38 (pGEX4T2 linker TGN38); test: BLI; GST-TGN38 loaded on anti-GST biosensors; AP2 core (3.3 to 0.1 μM) or AP2 FCHO2 chimera (2.6 to 0.9 μM) in solution; physiological buffer; association 20 min, dissociation 25 min
Chain of GST-TGN38 (pGEX4T2 linker TGN38) (Q9UJY5 other isoform, or with tags, fused parts or gaps): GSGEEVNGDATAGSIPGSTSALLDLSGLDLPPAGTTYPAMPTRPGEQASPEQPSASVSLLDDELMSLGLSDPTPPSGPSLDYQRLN

[4] = biological target: AP2 α-appendage (residues 695 to 938) (UniProt P17427); test: ITC; α-appendage or β2-appendage with C block peptides; 100 mM tris pH 7.4, 150 mM NaCl, 0.25 mM TCEP; 12°C; peptides 1 to 5 mM titrated
Chain of AP2 α-appendage (residues 695 to 938) (P17427 695-938): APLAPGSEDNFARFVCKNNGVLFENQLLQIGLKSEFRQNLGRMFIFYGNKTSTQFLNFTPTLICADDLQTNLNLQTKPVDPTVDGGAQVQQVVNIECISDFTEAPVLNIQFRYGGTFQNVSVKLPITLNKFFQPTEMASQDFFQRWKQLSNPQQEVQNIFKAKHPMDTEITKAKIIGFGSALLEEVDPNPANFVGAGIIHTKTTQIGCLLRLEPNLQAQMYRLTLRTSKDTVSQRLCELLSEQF

[5] = biological target: Cμ2 (μ2 residues 160 to 435) (UniProt P84092); test: ITC; Cμ2 with FCHO2 constructs or peptides; 100 mM tris pH 7.4, 150 mM NaCl, 0.25 mM TCEP; 12°C; Nano ITC
Chain of Cμ2 (μ2 residues 160 to 435) (P84092 160-435): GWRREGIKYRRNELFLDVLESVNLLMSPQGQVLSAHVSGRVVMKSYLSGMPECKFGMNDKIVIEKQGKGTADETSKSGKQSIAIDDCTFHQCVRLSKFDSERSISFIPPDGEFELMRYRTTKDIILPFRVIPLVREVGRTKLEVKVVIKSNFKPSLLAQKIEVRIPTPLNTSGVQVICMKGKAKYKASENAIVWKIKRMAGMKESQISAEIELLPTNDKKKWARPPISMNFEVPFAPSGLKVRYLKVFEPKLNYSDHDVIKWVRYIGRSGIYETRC

Substance: AP2:μ2FCHO2-N1+N2+N3 chimeric AP2 core (from UniProt P62743 1-142; P63010 1-591; Q0JRZ9-1 314-444) (complex)
- fold tighter binding than AP2 core [3]: 3 fold

Substance: FCHO1 C peptide (residues 426 to 448)
- pKd [4]: 4.30

Substance: FCHO2-N1+N2 (ITC) (from UniProt Q0JRZ9-1 314-356) (domain or fragment)
- pKd [5]: 4.60

More lines, now with the values ahead:

- pKd [1]: 5.07
- pKd [2]: 5.01
Substance: AP2 core (recombinant) (from UniProt P63010 1-591; P84092 1-435; P62743 1-142) (complex)

- fold reduction of binding against N1+N2 [5]: 5 fold
Substance: FCHO2 N1 alone (ITC) (from UniProt Q0JRZ9-1 314-340) (domain or fragment)

Reference: article PMC9054013, “FCHO controls AP2’s initiating role in endocytosis through a PtdIns(4,5)P2-dependent switch” (Science Advances, 2022)
